{
  "source": "paper PMC9374677",
  "molecular_target": "MBP-TNFR1^ECD deletion mutant ΔCRD2 (human) (UniProt P19438)",
  "assay": "ITC; MicroCal PEAQ-ITC, 16 °C; […] (500–600 μM) […] (~60 μM); 20 mM Tris-HCl pH 7.5, 200 mM NaCl; […]",
  "data": [
    {"substance": "Staphylococcal superantigen-like protein 10 (SSL10), residues 31-227, C-terminal 6xHis (from UniProt A0A0H3K6Z9 31-227) (natural protein)", "values": [
      {"measurement": "Kd", "result": 30.3, "unit": "µM"}
    ]}
  ]
}
